Patent publication US20180303952A1 (CYTOMX THERAPEUTICS, published 2018)
Substitutions are numbered along the chain they refer to. Several values for one entry are separate records, joined by “and”; a condition that tells them apart may be missing. Equal values may be shown once.

Key:
[1] = biological target: T1, human CD147 protein (adsorbed to ELISA plates) (human, UniProt P35613-2 22-205, limits assumed); assay: ELISA, human CD147 protein adsorbed to plate, intact activatable antibody; apparent KD
T1 construct: also called human CD147 polypeptide; Basigin
T1 sequence (looked up): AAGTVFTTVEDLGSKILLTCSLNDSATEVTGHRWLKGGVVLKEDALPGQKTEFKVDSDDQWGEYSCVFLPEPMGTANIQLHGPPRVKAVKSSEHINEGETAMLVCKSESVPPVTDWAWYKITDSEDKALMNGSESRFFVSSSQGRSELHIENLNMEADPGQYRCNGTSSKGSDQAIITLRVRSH
Experimental: Humanized anti-human CD147 antibodies of the present disclosure hu 3A11 Hc1/Lc1 (VL of SEQ ID NO: 5 and VH of SEQ ID NO: 1) were used as a control.
(§1) Using a standard ELISA protocol, human CD147 protein was absorbed to ELISA plates and subsequently incubated with the indicated concentration of antibody of the present disclosure. Bound humanized activatable antibody of the present disclosure was detected with anti-human Fab-peroxidase secondary antibody and Ultra TMB detection (Thermo Fisher Scientific).

[2] = biological target: T1, human CD147 protein (adsorbed to ELISA …); assay: as above; remark: listed apart in the source
Experimental: as §1, with “For the exemplary assay depicted in FIGS. 7A-7C,” for “Using a”, “protocol was used, in which” for “protocol,”

[3] = biological target: T1, human CD147 protein (adsorbed to ELISA …); assay: ELISA, human CD147 protein adsorbed to plate, anti-human Fab-peroxidase detection; apparent KD
Experimental: The antibodies of the present disclosure that were assayed in this exemplary study were hu 3A11 Lc1/hu 3A11 Hc1 (VL of SEQ ID NO: 5 and VH of SEQ ID NO: 1), hu 3A11 Lc2/hu 3A11 Hc2 (VL of SEQ ID NO: 6 and VH of SEQ ID NO: 2), hu 3A11 Lc4/hu 3A11 Hc2 (VL of SEQ ID NO: 8 and VH of SEQ ID NO: 2). Using a standard ELISA protocol, human CD147 protein was absorbed to ELISA plates and subsequently incubated with the indicated concentration of antibody of the present disclosure. Bound humanized antibody of the present disclosure was detected with anti-human Fab-peroxidase secondary antibody, and Ultra TMB detection (Thermo Fisher Scientific).

[4] = biological target: T2, cynomolgus monkey CD147 on the cynomolgus primary kidney epithelial cell line (cynomolgus monkey); assay: FACS on cynomolgus primary kidney epithelial cell line, Alexa Fluor 647 goat anti-human IgG detection
T2 construct: whole, on cells; also called cynomolgus CD147
Experimental: In this study, the binding of the humanized anti-human CD147 antibody of the present disclosure to the indicated cell lines were performed using a standard FACS labelling method. Briefly, cells were labeled with the indicated antibodies of the present disclosure: anti-human CD147 antibody (humanized anti-human CD147 hu3A11 antibody; VH of SEQ ID NO: 1, VL of SEQ ID NO: 5) at the indicated concentrations and subsequently detected with an Alexa Fluor 647 labeled goat anti-human IgG secondary antibody.

[5] = biological target: T1, human CD147 protein (adsorbed to ELISA …); assay: ELISA, human CD147 protein adsorbed to plate, anti-human Fab-peroxidase detection; apparent KD; remark: listed apart in the source
Experimental: as §1

[6] = biological target: T3, recombinant human CD147-Fc chimeric protein (glycosylated) (human, UniProt P35613-2 25-205, glycosylated as supplied (migrates at about 62 kDa)); assay: ELISA, CD147-Fc adsorbed at 1 ug/mL, anti-human Fab-peroxidase detection; apparent KD
T3 construct: Bought protein; also called CD147-Fc (glycosylated); R&D Systems cat. no; 927-EMN-050; Fc part of the bought chimera not given
T3 sequence (looked up): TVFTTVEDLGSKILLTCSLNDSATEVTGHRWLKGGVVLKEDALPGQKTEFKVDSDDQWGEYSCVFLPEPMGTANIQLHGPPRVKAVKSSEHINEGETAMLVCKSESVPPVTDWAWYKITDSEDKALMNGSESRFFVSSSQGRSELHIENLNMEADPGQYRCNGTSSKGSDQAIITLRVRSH
Experimental: (§2) After buffer exchange with PBS, the deglycosylated or glycosylated proteins were adsorbed onto ELISA plates at 1 μg/mL. […] Bound humanized antibody of the present disclosure was detected with anti-human Fab-peroxidase secondary antibody and the mouse 3A11 monoclonal antibody was detected with anti-mouse Fc-peroxidase secondary antibody, and Ultra TMB detection (Thermo Fisher Scientific).

[7] = biological target: T1, human CD147 protein (adsorbed to ELISA …); assay: ELISA, human CD147 protein adsorbed to plate, anti-human Fab-peroxidase detection; apparent KD; remark: listed apart in the source
Experimental: (§3) The antibody of the present disclosure that was assayed in this exemplary study was hu 3A11 Lc1/Hc1 (VL of SEQ ID NO: 5 and VH of SEQ ID NO: 1). Mouse anti-human CD147 monoclonal antibody 3A11 (VL of SEQ ID NO: 8 and VH of SEQ ID NO: 4) was assayed as a reference. Using a standard ELISA protocol, human CD147 protein was absorbed to ELISA plates and subsequently incubated with the indicated concentration of antibody of the present disclosure. Bound humanized antibody of the present disclosure was detected with anti-human Fab-peroxidase secondary antibody and the mouse 3A11 monoclonal antibody was detected with anti-mouse Fc-peroxidase secondary antibody, and Ultra TMB detection (Thermo Fisher Scientific).

[8] = biological target: T4, recombinant human CD147-Fc chimeric protein deglycosylated with Enzymatic Protein Deglycosylation Kit … (human, UniProt P35613-2 25-205, N- and simple O-linked carbohydrates removed enzymatically (Sigma-Aldrich EDEGLY kit, about 1.5 days at 37 C)); assay: ELISA, deglycosylated CD147-Fc adsorbed at 1 ug/mL, anti-human Fab-peroxidase detection; apparent KD
T4 construct: Same bought protein as m9 after deglycosylation (migrates at 52 and 48 kDa); also called CD147-Fc (deglyc-Sigma); Fc part of the bought chimera not given
T4 sequence (looked up): T3 sequence (looked up)
Experimental: (§4) In this example, recombinant human CD147-Fc chimeric protein (R&D Systems, cat. no. 927-EMN-050) was deglycosylated of N- and simple O-linked carbohydrates using the Protein Deglycosylation Mix II (˜16 hrs incubation at 37° C.; New England Biolabs, cat. no. P6044S) or the Enzymatic Protein Deglycosylation Kit (˜1.5 days+incubation at 37° C.; Sigma-Aldrich, cat. no. EDEGLY) in accordance with their respective protocols. […] Bovine fetuin, which includes both N- and O-linked carbohydrates, was used a control for the extent of deglycosylation.
as §2

[9] = biological target: T5, recombinant human CD147-Fc chimeric protein deglycosylated with Protein Deglycosylation Mix II (New England … (human, UniProt P35613-2 25-205, N- and simple O-linked carbohydrates removed enzymatically (NEB Protein Deglycosylation Mix II, about 16 hrs at 37 C))); assay: as above
T5 construct: Same bought protein as m9 after deglycosylation (migrates at 52 and 48 kDa); also called CD147-Fc (deglyc-NEB); Fc part of the bought chimera not given
T5 sequence (looked up): T3 sequence (looked up)
Experimental: as §4, §2

[10] = biological target: T1, human CD147 protein (adsorbed to ELISA …); assay: ELISA, human CD147 protein adsorbed to plate, anti-human Fab-peroxidase detection; apparent KD; remark: listed apart in the source
Experimental: as §1, with “For the exemplary assay depicted in FIGS. 7A-7C,” for “Using a”, “protocol was used, in which” for “protocol,”

[11] = biological target: T1, human CD147 protein (adsorbed to ELISA …); assay: ELISA, human CD147 protein adsorbed to plate, anti-mouse Fc-peroxidase detection; apparent KD
Experimental: as §3

B1: anti-human CD147 activatable antibody hu 3A11 Hc1/Lc1-414-3001 (antibody)
VH: EVQLVESGGGLVQPGGSLRLSCAASGFTFSNYWMDWVRQAPGKGLEWVGEIRLKSYNYATHYAASVKGRFTISRDDSKNSVYLQMNSLKTEDTAVYYCTAAGTDYWGQGTLVTVSS
VL: THGPCHFKPNCSYPTGGGSSGGSAVGLLAPPGGLSGRSDNHGGSDIQMTQSPSSLSASVGDRVTITCRASQSVRTDVGWYQQKPGKAPKLLIYYSSNRYTGVPSRFSGSGSGTDFTLTISSLQPEDFATYYCQQDYSSPYTFGQGTKLEIK
notes: also called hu 3A11-414-3001
- Kd [1]: 16000 pM
- Kd [2]: 24700 pM

B2: humanized anti-human CD147 antibody hu 3A11 Lc2/hu 3A11 Hc2 (antibody, V domains shown)
VH: B1 VH with D35N, V81L, T99A, A100R
VL: DIQMTQSPSSLSASVGDRVTITCKASQSVRTDVAWYQQKPGKAPKLLIYYSSNRYTGVPSRFSGSGSGTDFTLTISSLQPEDFATYYCQQDYSSPFTFGQGTKLEIK
notes: also called hu 3A11 (hu Lc2/hu Hc2)
- Kd [3]: 726 pM

B3: humanized anti-human CD147 antibody hu 3A11 Lc4/hu 3A11 Hc2 (antibody, V domains shown)
VH: B1 VH with D35N, V81L, T99A, A100R
VL: B2 VL with A13V, S67Y, L73F, L78V
notes: also called hu 3A11 (hu Lc4/hu Hc2)
- Kd [3]: 902 pM

B4: humanized anti-human CD147 monoclonal antibody hu 3A11 Lc1/Hc1 (antibody, V domains shown)
VH: B1 VH
VL: B2 VL with K24R, A34G, F96Y
notes: Detected with anti-human Fab or anti-human IgG secondary antibodies; also called hu 3A11 (hu Lc1/hu Hc1); hu 3A11 (hu Hc1/Lc1)
- Kd [4]: 1300 pM
- Kd [3]: 852 pM
- Kd [5]: 140 pM
- Kd [6]: 191 pM
- Kd [7]: 710 pM
- Kd [8]: 175 pM
- Kd [9]: 185 pM
- Kd [10]: 450 pM and 590 pM

B5: anti-human CD147 activatable antibody hu 3A11 Hc1/Lc1-419.2-3001 (antibody, V domains shown)
VH: B1 VH
VL: LHGPCHYDLKCKNNGGGSSGGSAVGLLAPPGGLSGRSDNHGGSDIQMTQSPSSLSASVGDRVTITCRASQSVRTDVGWYQQKPGKAPKLLIYYSSNRYTGVPSRFSGSGSGTDFTLTISSLQPEDFATYYCQQDYSSPYTFGQGTKLEIK
notes: also called hu 3A11-419.2-3001
- Kd [2]: 20800 pM

B6: anti-human CD147 activatable antibody hu 3A11 Hc1/Lc1-419.3-3001 (antibody, V domains shown)
VH: B1 VH
VL: LHGPCHYDLKCKGGGSSGGSAVGLLAPPGGLSGRSDNHGGSDIQMTQSPSSLSASVGDRVTITCRASQSVRTDVGWYQQKPGKAPKLLIYYSSNRYTGVPSRFSGSGSGTDFTLTISSLQPEDFATYYCQQDYSSPYTFGQGTKLEIK
notes: also called hu 3A11-419.3-3001
- Kd [2]: 73500 pM

B7: mouse anti-human CD147 monoclonal antibody 3A11 (antibody, V domains shown)
VH: EVKLEESGGGLVQPGGSMKLSCVASGFTFSNYWMNWVRQSPEKGLEWVGEIRLKSYNYATHYVESVEGRFTISRDDSKSSVYLQMNNLRAEDTGIYYCTAAGTDYWGQGTTLTVSS
VL: SIVMTQIPKILLVSAGDRVTITCKASQSVRTDVAWYQQKPGQSPKLLIYYSSNRYTGVPDRFTGSGYGTDFTFTISTVQAEDLAVYFCQQDYSSPFTFGSGTKLEIK
notes: Mouse hybridoma antibody, detected with anti-mouse Fc secondary antibody; also called Mouse 3A11; mu 3A11
- Kd [11]: 293 pM

B8: anti-human CD147 activatable antibody hu 3A11 Hc1/Lc1-414.3-2012 (antibody, V domains shown)
VH: B1 VH
VL: THGPCHFKPNCAYPTGGGSSGGSISSGLLSGRSANPGGGSDIQMTQSPSSLSASVGDRVTITCRASQSVRTDVGWYQQKPGKAPKLLIYYSSNRYTGVPSRFSGSGSGTDFTLTISSLQPEDFATYYCQQDYSSPYTFGQGTKLEIK
notes: also called hu 3A11-414.3-2012
- Kd [2]: 5920 pM

B9: anti-human CD147 activatable antibody hu 3A11 Hc1/Lc1-414.4-2012 (antibody, V domains shown)
VH: B1 VH
VL: B8 VL with K8R
notes: also called hu 3A11-414.4-2012
- Kd [2]: 6730 pM

B10: anti-human CD147 activatable antibody hu 3A11 Hc1/Lc1-415-2012 (antibody, V domains shown)
VH: B1 VH
VL: B8 VL with T1L, K8N, P9N, N10C, C11N, A12T, Y13L, P14K, T15L
notes: also called hu 3A11-415-2012
- Kd [2]: 1430 pM

B11: anti-human CD147 activatable antibody hu 3A11 Hc1/Lc1-415.1-2012 (antibody, V domains shown)
VH: B1 VH
VL: LHGPCHFNNCNTLGGGSSGGSISSGLLSGRSANPGGGSDIQMTQSPSSLSASVGDRVTITCRASQSVRTDVGWYQQKPGKAPKLLIYYSSNRYTGVPSRFSGSGSGTDFTLTISSLQPEDFATYYCQQDYSSPYTFGQGTKLEIK
notes: also called hu 3A11-415.1-2012
- Kd [2]: 4680 pM

B12: anti-human CD147 activatable antibody hu 3A11 Hc1/Lc1-419.3-2012 (antibody, V domains shown)
VH: B1 VH
VL: LHGPCHYDLKCKGGGSSGGSISSGLLSGRSANPGGGSDIQMTQSPSSLSASVGDRVTITCRASQSVRTDVGWYQQKPGKAPKLLIYYSSNRYTGVPSRFSGSGSGTDFTLTISSLQPEDFATYYCQQDYSSPYTFGQGTKLEIK
notes: also called hu 3A11-419.3-2012
- Kd [2]: 10000 pM
